The target in data set [1] is T1, SpPot1 (Schizosaccharomyces pombe, UniProt O13988 1-555).
T1 sequence: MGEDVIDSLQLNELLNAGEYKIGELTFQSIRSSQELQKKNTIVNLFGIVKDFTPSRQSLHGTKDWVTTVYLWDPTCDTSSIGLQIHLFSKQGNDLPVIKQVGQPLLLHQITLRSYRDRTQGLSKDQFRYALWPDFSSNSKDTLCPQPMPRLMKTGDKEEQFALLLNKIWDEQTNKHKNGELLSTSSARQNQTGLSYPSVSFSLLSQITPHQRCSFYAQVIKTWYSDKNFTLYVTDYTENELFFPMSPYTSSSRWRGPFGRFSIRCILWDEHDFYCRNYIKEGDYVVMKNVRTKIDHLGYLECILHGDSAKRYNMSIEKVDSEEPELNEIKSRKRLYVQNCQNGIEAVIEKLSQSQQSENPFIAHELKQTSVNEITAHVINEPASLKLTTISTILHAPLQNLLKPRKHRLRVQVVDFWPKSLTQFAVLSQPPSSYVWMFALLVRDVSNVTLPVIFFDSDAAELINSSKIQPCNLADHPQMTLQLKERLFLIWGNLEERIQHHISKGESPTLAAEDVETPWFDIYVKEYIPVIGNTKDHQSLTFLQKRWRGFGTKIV
The experiment in a line: filter binding.

The target in data set [2] is T2, SpPot1;Tpz1-1-234 (Schizosaccharomyces …, UniProt O13988;O14246 1-555;1-234, |).
T2 sequence 1: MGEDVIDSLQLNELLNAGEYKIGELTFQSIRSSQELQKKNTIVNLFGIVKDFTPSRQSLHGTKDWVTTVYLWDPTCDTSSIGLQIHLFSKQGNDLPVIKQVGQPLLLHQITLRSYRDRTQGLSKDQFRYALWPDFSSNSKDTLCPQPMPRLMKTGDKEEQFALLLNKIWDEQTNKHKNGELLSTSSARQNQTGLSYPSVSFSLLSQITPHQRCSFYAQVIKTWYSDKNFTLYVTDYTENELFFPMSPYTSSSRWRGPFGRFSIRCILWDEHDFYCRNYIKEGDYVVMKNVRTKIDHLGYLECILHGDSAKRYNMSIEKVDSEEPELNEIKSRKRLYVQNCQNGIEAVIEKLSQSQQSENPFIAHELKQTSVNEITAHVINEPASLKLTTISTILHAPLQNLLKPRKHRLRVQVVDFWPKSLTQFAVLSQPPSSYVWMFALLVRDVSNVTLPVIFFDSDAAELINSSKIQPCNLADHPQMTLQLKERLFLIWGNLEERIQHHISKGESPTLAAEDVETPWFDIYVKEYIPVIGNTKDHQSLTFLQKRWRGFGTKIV
T2 sequence 2: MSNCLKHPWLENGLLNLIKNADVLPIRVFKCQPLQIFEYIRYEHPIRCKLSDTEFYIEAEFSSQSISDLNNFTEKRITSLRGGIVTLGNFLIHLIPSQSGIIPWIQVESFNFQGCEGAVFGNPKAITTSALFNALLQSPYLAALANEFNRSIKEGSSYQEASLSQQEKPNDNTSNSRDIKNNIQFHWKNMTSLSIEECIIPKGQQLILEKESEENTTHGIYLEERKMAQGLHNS
The experiment in a line: filter binding.

Data set [3] addresses T1, SpPot1. The experiment in a line: size-exclusion chromatography. (SEC sorts molecules by how far they enter the pores of the column.)
For data set [4], the target named is T3, full-length SpPot1 (Schizosaccharomyces pombe Pot1) (S. pombe, UniProt O13988 1-555).
T3 sequence (looked up): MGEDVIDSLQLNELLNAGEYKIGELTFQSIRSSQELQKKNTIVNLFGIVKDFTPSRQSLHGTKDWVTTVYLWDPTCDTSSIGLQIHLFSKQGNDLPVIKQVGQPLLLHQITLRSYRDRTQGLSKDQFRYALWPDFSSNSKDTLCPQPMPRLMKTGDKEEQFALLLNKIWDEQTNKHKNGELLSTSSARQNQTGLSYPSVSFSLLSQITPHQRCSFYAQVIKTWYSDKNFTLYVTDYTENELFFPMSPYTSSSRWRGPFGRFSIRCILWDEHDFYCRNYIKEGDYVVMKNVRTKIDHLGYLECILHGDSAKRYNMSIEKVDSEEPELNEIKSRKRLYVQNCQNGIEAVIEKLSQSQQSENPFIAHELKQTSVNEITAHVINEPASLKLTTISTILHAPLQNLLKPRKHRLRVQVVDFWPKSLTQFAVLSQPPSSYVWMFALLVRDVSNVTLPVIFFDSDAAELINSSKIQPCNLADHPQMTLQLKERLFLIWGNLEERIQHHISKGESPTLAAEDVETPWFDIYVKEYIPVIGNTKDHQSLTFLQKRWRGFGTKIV
The experiment in a line: native gel or EMSA. A general note: A gel shift assay detects complexes by their altered migration in electrophoresis.

From publication PMC3245936 (Nucleic Acids Research, 2011) come the findings set out here.

A word on the Kd: it is the equilibrium constant for the complex coming apart. A low value points to higher affinity. GGUUACGGUUAC (ssRNA) [r12]: the Kd is approximately 324 nM in data set [1] and approximately 1000 nM in data set [2].

With GGTTACAGGGGTTAC (ssDNA) [d12dAdGdG], in data set [1], binding was put at a Kd of 4.9 ± 0.7 nM.

For GGTTACGGTTAC (mixed, ribonucleotides at 6 and 12) [r6r12], the Kd worked out at 3.2 ± 0.6 nM in data set [1] and 0.3 ± 0.05 nM in data set [2].

Take GGTTACGGTTAC (mixed, ribonucleotides at 2 and 8) [r2r8]: the Kd in data set [1] is 3.2 ± 0.5 nM; in data set [2] it was 0.19 ± 0.03 nM.

On to GGUUACGGUUAC (mixed, ribonucleotides (rU) at 3, 4, 9 and 10) [r3r4r9r10], for which the Kd in data set [1] was approximately 238 nM.

Consider GGTTACGGTTAC (mixed, ribonucleotides at 1 and 7) [r1r7], for which the Kd was 5.1 ± 0.01 nM in data set [1] and 0.31 ± 0.02 nM in data set [2].

With GGTTAC (ssDNA), in data set [3], the binding result is “binds”.

In turn, GGTTACAGGTTAC (ssDNA) [d12dA] came in with a Kd in data set [1] of 4.3 ± 0.6 nM.

For the molecule GGTTACGGTTAC (ssDNA) [d12], the dissociation constant Kd turned out to be 5 ± 1.3 nM in data set [1] and 0.22 ± 0.03 nM in data set [2].

Consider GGTTACGGTTAC (mixed, ribonucleotides at 5 and 11) [r5r11], for which the Kd in data set [1] was 3.34 ± 0.4 nM; in data set [2], 0.31 ± 0.05 nM.

With GGTTACAGGGGTTAC (mixed, ribonucleotides (rArGrG) at 7-9) [d12rArGrG], the Kd in data set [1] stood at 4 ± 0.5 nM.

B1: Tpz1-1–234 (domain or fragment, S. pombe, UniProt O14246 1-234, looked up)
chain: MSNCLKHPWLENGLLNLIKNADVLPIRVFKCQPLQIFEYIRYEHPIRCKLSDTEFYIEAEFSSQSISDLNNFTEKRITSLRGGIVTLGNFLIHLIPSQSGIIPWIQVESFNFQGCEGAVFGNPKAITTSALFNALLQSPYLAALANEFNRSIKEGSSYQEASLSQQEKPNDNTSNSRDIKNNIQFHWKNMTSLSIEECIIPKGQQLILEKESEENTTHGIYLEERKMAQGLHNS
For B1, the binding result in data set [4] is reported as “binds”.

Consider GGTTACAGGTTAC (mixed, ribonucleotide (rA) at 7) [d12rA], for which, in data set [1], the Kd stood at 3.4 ± 0.3 nM.
